Source: patent publication US20100292083A1 (Ablynx, published 2010)

T1: soluble IL6R in human plasma (human, UniProt P08887 20-355, limits assumed)
T1 sequence (looked up): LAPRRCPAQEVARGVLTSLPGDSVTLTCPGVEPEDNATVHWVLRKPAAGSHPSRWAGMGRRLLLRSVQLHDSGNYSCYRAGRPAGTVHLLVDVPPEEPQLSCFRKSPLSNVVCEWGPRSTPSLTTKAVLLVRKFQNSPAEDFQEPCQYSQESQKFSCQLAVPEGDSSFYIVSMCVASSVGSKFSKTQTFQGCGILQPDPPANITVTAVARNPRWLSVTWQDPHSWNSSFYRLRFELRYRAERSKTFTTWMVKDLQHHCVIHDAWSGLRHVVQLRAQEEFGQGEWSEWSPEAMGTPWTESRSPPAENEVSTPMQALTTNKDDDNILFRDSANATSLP

T2: human IL6R (human, UniProt P08887 20-358, limits assumed)
T2 construct: Antigen of the Biacore experiments
T2 sequence (looked up): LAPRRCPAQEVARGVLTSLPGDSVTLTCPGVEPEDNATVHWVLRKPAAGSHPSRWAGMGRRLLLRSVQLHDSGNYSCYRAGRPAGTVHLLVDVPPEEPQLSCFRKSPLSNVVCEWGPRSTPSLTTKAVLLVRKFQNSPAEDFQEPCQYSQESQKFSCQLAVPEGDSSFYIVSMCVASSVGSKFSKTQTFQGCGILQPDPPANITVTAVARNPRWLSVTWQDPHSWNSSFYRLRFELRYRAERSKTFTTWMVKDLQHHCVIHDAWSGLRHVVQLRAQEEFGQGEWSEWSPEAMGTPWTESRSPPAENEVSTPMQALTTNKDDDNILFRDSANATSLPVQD

T3: IL6R on the cell-surface of TF-1 cells (UniProt P08887 20-468, limits assumed)
T3 sequence (looked up): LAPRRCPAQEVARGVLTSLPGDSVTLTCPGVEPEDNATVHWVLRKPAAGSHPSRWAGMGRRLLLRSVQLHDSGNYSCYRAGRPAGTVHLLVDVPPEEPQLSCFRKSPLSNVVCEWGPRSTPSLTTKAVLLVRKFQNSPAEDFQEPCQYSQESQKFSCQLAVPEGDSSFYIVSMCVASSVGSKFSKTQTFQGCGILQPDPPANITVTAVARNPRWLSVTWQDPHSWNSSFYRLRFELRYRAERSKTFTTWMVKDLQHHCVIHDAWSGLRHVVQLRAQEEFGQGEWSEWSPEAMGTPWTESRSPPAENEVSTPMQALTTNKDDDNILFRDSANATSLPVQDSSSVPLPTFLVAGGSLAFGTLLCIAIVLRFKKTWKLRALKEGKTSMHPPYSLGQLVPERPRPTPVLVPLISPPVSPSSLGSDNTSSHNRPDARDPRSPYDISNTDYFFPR


Key:
[1] = target: T1, soluble IL6R in human plasma; test: human plasma potency assay: competition ELISA, inhibition of human IL6 binding to soluble IL6R
Description: All 5 Nanobodies and the parent Nanobody were also tested in a plasma potency assay. In this assay different concentrations of Nanobody are mixed with soluble IL6R containing plasma from either human or cynomolgus monkey and a fixed concentration of human IL6. After 1 hour of incubation the mixture is transferred to a Maxisorp plate coated with the anti-IL6R MAb BN-12 (Diaclone). The amount of IL6 bound was determined by subsequent addition of biotinylated anti-IL6 polyclonal antibody (R&D Systems) and streptavidin-HRP. TMB was used as substrate. Substrate conversion was measured at 450 nm.

[2] = target: soluble IL6R in cynomolgus monkey plasma (cynomolgus monkey, UniProt A0A2K5WN54 60-396); test: cyno plasma potency assay: competition ELISA, inhibition of human IL6 binding to soluble IL6R
[3] = target: T2, human IL6R; test: SPR (Biacore), purified Nanobody
Description: Binding curves at different concentrations of purified Nanobody were recorded on Biacore and used to calculate values for ka, kd and Kd (Table B-4).

[4] = target: T3, IL6R on the cell-surface of TF-1 cells; test: cell-based or functional assay
[5] = target: T2, human IL6R; test: SPR (Biacore), periplasmic extract
Description: Selection outputs were analyzed by picking individual colonies and growing them overnight in 1 ml 2×YT (Yeast Tryptone) medium+100 ug/ml Carbenicillin at 37 C. Nanobody containing periplasmic extracts were prepared, diluted 1/10 in PBS and subsequently tested for antigen binding in ELISA. Clones with the highest ELISA signals were sequenced and analyzed on Biacore. […] The off-rate of the best clone from the CDR3 library was 7×10e-4 s-1.

[6] = target: T2, human IL6R; test: SPR (Biacore), periplasmic extract; remark: listed apart in the source
Description: The oligos were dissolved in H₂O and subsequently pooled at a final concentration of 0.4 uM for each oligo. 5 and 1 ul of this mixture was used for assembly PCR in a 50 ul reaction volume. Full-length product was purified using the Qiagen PCR purification kit. The purified PCR product was then digested with SfiI and BsteEII and ligated into the corresponding sites of expression vector pAX51. E. coli TG1 cells were transformed with 2 ul of ligation mixture and plated on LB agar+100 ug/ml ampicillin+2% glucose. Plates were incubated overnight at 37° C. Individual colonies were picked and grown overnight in 2×YT+100 ug/ml ampicillin+2% glucose. Cloned Nanobody genes were amplified directly from these cultures with M13 forward and reverse primers. PCR products were purified and subsequently sequenced. In parallel the same panel of Nanobodies was expressed at 1 ml scale for 4 hours at 37° C. Periplasmic extracts were prepared and without further purification analyzed on Biacore for their ability to bind human IL6R.

soluble IL6R in cynomolgus monkey plasma, sequence (A0A2K5WN54 entry or part of it): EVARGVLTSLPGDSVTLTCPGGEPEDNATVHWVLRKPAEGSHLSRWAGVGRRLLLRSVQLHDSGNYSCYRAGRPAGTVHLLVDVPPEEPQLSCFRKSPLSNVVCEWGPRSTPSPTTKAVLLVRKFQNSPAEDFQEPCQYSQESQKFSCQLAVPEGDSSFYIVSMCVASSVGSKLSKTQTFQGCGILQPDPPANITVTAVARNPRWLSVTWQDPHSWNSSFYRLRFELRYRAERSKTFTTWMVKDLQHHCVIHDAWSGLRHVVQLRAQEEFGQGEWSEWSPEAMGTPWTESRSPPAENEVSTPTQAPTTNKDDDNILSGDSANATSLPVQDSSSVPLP

| Binder | IC50 [1] | IC50 [2] | Kd [3] | koff [3] | kon [3] | Inhibition of IL6-dependent proliferation of TF-1 cells (3H-thymidine incorporation), IC50 [4] | fold improvement of Kd relative to the parent molecule (IL6R65) [3] | koff [5] | koff [6] |
| --- | --- | --- | --- | --- | --- | --- | --- | --- | --- |
| Nanobody IL6R65 (VHH, also called ILR65) VHH: EVQLVESGGGLVQPGGSLRLSCAASGSIFKVNAMGWYRQAPGKGRELVAGIISGGSTNYADSVKGRFTISRDNAKNTLYLQMNSLRPEDTAVYYCAFVTTNSDYDLGRDYWGQGTLVTVSS | 4.93 nM | 2.99 nM | 4.3 nM | 0.00234 s⁻¹ | 539000 M⁻¹ s⁻¹ | 55 nM | – | – | – |
| IL6R65PMP7C4 (VHH, Also expressed in E. coli and purified via IMAC) VHH: EVQLVESGGGLVQPGGSLRLSCAASGTTFRINVMAWYRQAPGKGRELVAGIITNGSTSYADSVKGRFTISRDNAKNTLYLQMNSLRPEDTAVYYCAFVTTNSDYDLGRDYWGQGTLVTVSS | 0.21 nM | 0.08 nM | 0.34 nM | 0.000177 s⁻¹ | 527000 M⁻¹ s⁻¹ | 2.5 nM | 13 fold | 0.00043 s⁻¹ | – |
| IL6R65PMP7D6 (VHH, Also expressed in E. coli and purified via IMAC) VHH: EVQLVESGGGLVQPGGSLRLSCAASGSIFRVNVMAWYRQAPGKGRELVAAVINGGTTTYADSVKGRFTISRDNAKNTLYLQMNSLRPEDTAVYYCAFVTTNSDYDLGRDYWGQGTLVTVSS | 0.19 nM | 0.09 nM | 0.42 nM | 0.000279 s⁻¹ | 672000 M⁻¹ s⁻¹ | 3.7 nM | – | 0.00044 s⁻¹ | – |
| IL6R65PMP7G7 (VHH, Also expressed in E. coli and purified via IMAC) VHH: EVQLVESGGGLVQPGGSLRLSCAASGTTFKINIMAWYRQAPGKGRELVAGVITGGNTTYADSVKGRFTISRDNAKNTLYLQMNSLRPEDTAVYYCAFVTTNSDYDLGRDYWGQGTLVTVSS | 0.22 nM | 0.11 nM | 0.56 nM | 0.00031 s⁻¹ | 550000 M⁻¹ s⁻¹ | 3.5 nM | – | 0.00037 s⁻¹ | – |
| IL6R65PMP7F4 (VHH, Also expressed in E. coli and purified via IMAC) VHH: EVQLVESGGGLVQPGGSLRLSCAASGTTFKVNVMAWYRQAPGKGRELVAGIINGGSTTYADSVKGRFTISRDNAKNTLYLQMNSLRPEDTAVYYCAFVTTNSDYDLGRDYWGQGTLVTVSS | 0.24 nM | 0.09 nM | 0.48 nM | 0.000292 s⁻¹ | 609000 M⁻¹ s⁻¹ | 5.2 nM | – | 0.00026 s⁻¹ | – |
| IL6R65PMP7G8 (VHH, Also expressed in E. coli and purified via IMAC) VHH: EVQLVESGGGLVQPGGSLRLSCAASGSTFRINVMAWYRQAPGKGRELVAGVINDGSTTYADSVKGRFTISRDNAKNTLYLQMNSLRPEDTAVYYCAFVTTNSDYDLGRDYWGQGTLVTVSS | 0.34 nM | 0.14 nM | 0.95 nM | 0.000333 s⁻¹ | 352000 M⁻¹ s⁻¹ | 6.2 nM | – | 0.00041 s⁻¹ | – |
| Nanobody 32C9 (VHH, Tested as periplasmic extract; also called 32C9 WT; IL6R04) VHH: EVQLVESGGGLVQAGGSLRLSCAASGFTFDDYDIGWFRQAPGKEREGVSGISSSDGNTYYADSVKGRFTISSDNAKNTVYLQMNSLKPEDTAVYYCAAEPPDSSWYLDGSPEFFKYWGQGTQVTVSS | – | – | – | – | – | – | – | – | 0.000162 s⁻¹ |
| P32C9PMP2_E12 (VHH, name in Kabat numbering, Humanized 32C9 variant) VHH: EVQLVESGGGLVQAGGSLRLSCAASGFTFDDYDIGWFRQAPGKGREGVSGISSSDGNTYYADSVKGRFTISRDNAKNTVYLQMNSLRPEDTAVYYCAAEPPDSSWYLDGSPEFFKYWGQGTLVTVSS | – | – | – | – | – | – | – | – | 0.000247 s⁻¹ |
